# Results taken from article PMC3907034.
# Molecular target: HIV-1 P7L-S40A-Gag, full-length (HIV-1)
# Assay: two-hybrid; Matchmaker GAL4 system, S. cerevisiae Y190, quantitative liquid beta-galactosidase assay; units normalized to P7L with Alix (panel B) or WT Gag with Alix (panel C)
substance,measurement,value
full-length Alix (from UniProt Q8WUM4 1-868) (natural protein),fold increase of binding (beta-galactosidase units) against P7L-Gag with Alix,7 fold
